Source: PMC1885643 (Nucleic Acids Research, 2007)
Like-named read-outs stand apart in the source and are kept apart here.

T1: FLAG-hRad9 (human, UniProt Q99638 1-391)
T1 sequence (looked up): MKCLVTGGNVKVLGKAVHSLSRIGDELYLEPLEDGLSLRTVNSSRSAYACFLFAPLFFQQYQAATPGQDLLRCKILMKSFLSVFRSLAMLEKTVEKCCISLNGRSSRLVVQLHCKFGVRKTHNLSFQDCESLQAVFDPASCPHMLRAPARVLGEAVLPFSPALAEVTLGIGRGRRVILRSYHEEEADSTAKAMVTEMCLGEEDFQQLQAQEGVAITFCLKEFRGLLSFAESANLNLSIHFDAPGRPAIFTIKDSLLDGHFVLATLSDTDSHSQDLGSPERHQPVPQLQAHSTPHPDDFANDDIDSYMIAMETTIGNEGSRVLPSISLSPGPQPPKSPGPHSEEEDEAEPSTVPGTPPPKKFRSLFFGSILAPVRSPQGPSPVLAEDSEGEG

B1: GST-hHus1 (natural protein, human, UniProt O60921 1-280, looked up)
chain: MKFRAKIVDGACLNHFTRISNMIAKLAKTCTLRISPDKLNFILCDKLANGGVSMWCELEQENFFNEFQMEGVSAENNEIYLELTSENLSRALKTAQNARALKIKLTNKHFPCLTVSVELLSMSSSSRIVTHDIPIKVIPRKLWKDLQEPVVPDPDVSIYLPVLKTMKSVVEKMKNISNHLVIEANLDGELNLKIETELVCVTTHFKDLGNPPLASESTHEDRNVEHMAEVHIDIRKLLQFLAGQQVNPTKALCNIVNNKMVHFDLLHEDVSLQYFIPALS
B2: FLAG-hHus1 (natural protein, human, UniProt O60921 1-280, looked up)
chain: B1 chain
B3: His-tagged hHus1 (natural protein, human, UniProt O60921 1-280, looked up)
chain: B1 chain
B4: FLAG-hRad1 (natural protein, human, UniProt O60671 1-282, looked up)
chain: MPLLTQQIQDEDDQYSLVASLDNVRNLSTILKAIHFREHATCFATKNGIKVTVENAKCVQANAFIQAGIFQEFKVQEESVTFRINLTVLLDCLSIFGSSPMPGTLTALRMCYQGYGYPLMLFLEEGGVVTVCKINTQEPEETLDFDFCSTNVINKIILQSEGLREAFSELDMTSEVLQITMSPDKPYFRLSTFGNAGSSHLDYPKDSDLMEAFHCNQTQVNRYKISLLKPSTKALVLSCKVSIRTDNRGFLSLQYMIRNEDGQICFVEYYCCPDEEVPESES
B5: GST-hRad1 (natural protein, human, UniProt O60671 1-282, looked up)
chain: B4 chain

Legend:
[1] = target: T2, processed intact hNEIL1 (residues 2–390) (human, UniProt Q96FI4 2-390); experiment: pull-down
T2 sequence (Q96FI4 2-390): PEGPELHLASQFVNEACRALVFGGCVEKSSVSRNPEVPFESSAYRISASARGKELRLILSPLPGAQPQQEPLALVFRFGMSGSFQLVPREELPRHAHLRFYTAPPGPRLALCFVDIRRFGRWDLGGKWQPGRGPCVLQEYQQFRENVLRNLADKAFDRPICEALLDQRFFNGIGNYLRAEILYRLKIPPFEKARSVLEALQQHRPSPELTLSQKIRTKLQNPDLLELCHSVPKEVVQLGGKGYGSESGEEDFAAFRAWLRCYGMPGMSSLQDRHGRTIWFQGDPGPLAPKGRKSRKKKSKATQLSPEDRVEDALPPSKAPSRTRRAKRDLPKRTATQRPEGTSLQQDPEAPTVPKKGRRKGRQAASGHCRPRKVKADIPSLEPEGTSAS

[2] = target: T3, hNEIL1-CΔ40 (residues 2–350) (human, UniProt Q96FI4 2-350); experiment: pull-down
T3 sequence (Q96FI4 2-350, stated change not applied): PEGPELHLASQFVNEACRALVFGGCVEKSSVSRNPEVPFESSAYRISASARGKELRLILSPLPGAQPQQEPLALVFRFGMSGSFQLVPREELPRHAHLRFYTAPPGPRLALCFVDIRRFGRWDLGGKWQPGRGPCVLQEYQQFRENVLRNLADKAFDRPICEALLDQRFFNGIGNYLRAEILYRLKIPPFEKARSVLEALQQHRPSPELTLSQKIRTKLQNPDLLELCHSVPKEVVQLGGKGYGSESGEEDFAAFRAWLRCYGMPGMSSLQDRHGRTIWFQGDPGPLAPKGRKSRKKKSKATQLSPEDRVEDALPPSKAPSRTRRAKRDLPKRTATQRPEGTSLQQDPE

[3] = target: GST-hNEIL1 (residues 1–390) (human, UniProt Q96FI4 1-390); experiment: pull-down
Sequence of GST-hNEIL1 (residues 1–390) (Q96FI4 whole entry, the tested form may be a part): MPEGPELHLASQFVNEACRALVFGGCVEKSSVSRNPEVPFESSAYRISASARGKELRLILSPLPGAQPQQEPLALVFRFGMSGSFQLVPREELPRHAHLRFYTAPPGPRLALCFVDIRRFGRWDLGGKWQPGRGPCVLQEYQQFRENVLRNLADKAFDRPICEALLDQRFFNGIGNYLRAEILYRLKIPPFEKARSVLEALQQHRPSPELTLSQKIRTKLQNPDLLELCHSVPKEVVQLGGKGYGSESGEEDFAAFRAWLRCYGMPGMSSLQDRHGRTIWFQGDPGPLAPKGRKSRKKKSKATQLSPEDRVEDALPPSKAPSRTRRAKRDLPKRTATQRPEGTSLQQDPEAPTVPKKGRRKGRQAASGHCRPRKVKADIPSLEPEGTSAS

FLAG-hRad1 = target: B4; experiment: SEC
FLAG-hRad9 = target: T1, FLAG-hRad9; experiment: SEC
[4] = target: T2, processed intact hNEIL1 (residues 2–390); experiment: pull-down; remark: listed apart in the source
[5] = target: T3, hNEIL1-CΔ40 (residues 2–350); experiment: pull-down; remark: listed apart in the source

Binder | binding result [1] | binding result [2] | binding result [3] | binding result (FLAG-hRad9) | other results
B1 | binds | binds | – | – | –
B2 | – | – | binds | binds | binding result (FLAG-hRad1): binds
B3 | – | – | – | – | binding result [4]: binds; binding result [5]: binds
B4 | – | – | binds | binds | –
B5 | binds | binds | – | – | –
